This is an account of results in PMC8074050.

A word on the stoichiometry N: it is a count of units in the complex or per binding partner.

The target of this assay is nominally empty recombinant adeno-associated virus 5 capsid (adeno-associated virus 5 (recombinant, rAAV5)) (UniProt Q9YIJ1). The assay can be described thus: SEC-MALS; Superose 6 Increase (10/300), phosphate-buffered saline as mobile phase, 0.8 mL/min, column and detectors at 30 °C, samples kept at 4 °C before injection; RI, UV and RALS/LALS detection; whole capsid with whole capsid (dimer of capsids). (In gel filtration, larger molecules generally elute earlier.)

For “nominally empty recombinant adeno-associated virus 5 capsid (from UniProt Q9YIJ1 1-724) (complex)”, the fraction of sample (%) in the dimer peak worked out at 7.2% and the stoichiometry N was determined as 2.
